± gives the uncertainty stated by the source.

Drawing on the supplement of paper PMC12042874, this text covers amyloid nucleation score for 132 substances.

A short description of the series: amyloid nucleation score (Sup35N fusion, yeast selection) (log enrichment); library NNK3; higher = more nucleation; inactive = no reads after selection. An outline of the steps: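 The nucleation score is a DiMSum log enrichment of output over input reads, centred on the mode score of non-aggregating sequences. Sequences under 100 input reads were excluded, and reads came from Illumina sequencing of plasmid inserts. Psi-negative yeast expressing Sup35N fused to peptides of 20 random codons were induced with 100 μM copper sulfate for 24 hours and grown 7 days at 30°C on medium lacking adenine and uracil. Random libraries had three technical output replicates.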
LSCVLTVGTKTLFRAQMTQV: the amyloid nucleation score result is “inactive”.

Regarding CFDCTVF, the amyloid nucleation score entry was “inactive”.

Consider VRSARRQAGELEGFYCLYQV, for which the amyloid nucleation score entry is “inactive”.

YCALLRNAITVV: the amyloid nucleation score entry is “inactive”.

Consider GIFCYQWWRTNPNESLAR, for which the amyloid nucleation score result was “inactive”.

For the substance YQSTVFGCYTYSRLKCLRSA, the amyloid nucleation score result was “inactive”.

Regarding SLNMLDFFYSLFGVCNKTVL, the amyloid nucleation score entry is “inactive”.

As for SMWYASFTYESYLCLFKESR, the amyloid nucleation score entry is “inactive”.

For the substance LFLMIFNARNCVRYGIEGPS, the amyloid nucleation score entry was “inactive”.

Regarding HSRMWVTGLVSCVSGYMQVV, the amyloid nucleation score result is “inactive”.

Consider VNCQCSSEWCHKNSVYFIRY, for which the amyloid nucleation score stood at 2.59 ± 0.087.

Consider LFDLWNRVF, for which the amyloid nucleation score entry was “inactive”.

Substance DGCGCKWTGACAMLSCHMYL yielded an amyloid nucleation score of 1.41 ± 0.091.

For the substance EVDLLSVNPGVYWDLDWIWF, the amyloid nucleation score is -0.292 ± 0.88.

Turning to GYERSDKKLDKKVL, the amyloid nucleation score entry is “inactive”.

Turning to ADCNWVNNVMSVKGLMSVVM, the amyloid nucleation score entry is “inactive”.

Turning to LINKFRWPTPNECLVPVFQD, the amyloid nucleation score entry was “inactive”.

Regarding VCFFGLYVLKDN, the amyloid nucleation score entry is “inactive”.

As to LNVRAVFIVTRISVSYSRAR, the amyloid nucleation score came to 0.081 ± 0.52.

Turning to NRWIRLLNAISWGYLRMLMV, the amyloid nucleation score entry was “inactive”.

In the case of TWCFDSACNANGTWR, the amyloid nucleation score entry is “inactive”.

Consider VGGFFTSYKNYTK, for which the amyloid nucleation score was found to be 0.671 ± 0.27.

Regarding TVYLACIC, the amyloid nucleation score result is “inactive”.

Turning to LSDYLGYDG, the amyloid nucleation score result was “inactive”.

Take SGLLSAVLDAAS: the amyloid nucleation score result was “inactive”.

As for WSTLFVIILPTKTLGYYCFW, the amyloid nucleation score result was “inactive”.

TRYCVVNW had an amyloid nucleation score of -0.511 ± 0.56.

For the substance RVYVLLLNGQPFCRKYRL, the amyloid nucleation score entry was “inactive”.

With GRANGFQQIDLCEYHREYLN, the amyloid nucleation score entry is “inactive”.

For TSLGNGVSHGTLGFILTVNT, the amyloid nucleation score result was “inactive”.

As for VYINVNDVALKHRFLKPV, the amyloid nucleation score result is “inactive”.

DYRVNCFTCLYVVEVSHSHD gave an amyloid nucleation score of 1.84 ± 0.061.

For RLRQTATCIRFVFAGNVLAN, the amyloid nucleation score is 0.018 ± 1.2.

For VSGLFDVTLRGWYG, the amyloid nucleation score result was “inactive”.

Take ICRRPYFSHLRSHRGFQNTD: the amyloid nucleation score result is “inactive”.

SCYCN: the amyloid nucleation score entry was “inactive”.

On to WVVRKVHSLSHCLGCHPESW, for which the amyloid nucleation score came to 0.231 ± 0.57.

As to GFFCIYWGHWGFSES, the amyloid nucleation score result is “inactive”.

Turning to LLNRDI, the amyloid nucleation score result was “inactive”.

SIIVTVQLWYVGV showed an amyloid nucleation score of 0.422 ± 0.36.

Turning to INLTYRVTVRVQISAPGMCA, the amyloid nucleation score was -0.206 ± 0.65.

On to TLSLVQQSR, for which the amyloid nucleation score entry was “inactive”.

With CLMVKHYFFVSSWRFNVFGI, the amyloid nucleation score entry is “inactive”.

On to MSNRVMLKNYSLELEEIGRK, for which the amyloid nucleation score entry is “inactive”.

Consider SPWYLNVAIGTAKGCLSFID, for which the amyloid nucleation score result was “inactive”.

As to LTSCTATLCICCSRVVTVEI, the amyloid nucleation score was 1.24 ± 0.082.

Turning to DIEMY, the amyloid nucleation score entry is “inactive”.

With YTFLSVAFLD, the amyloid nucleation score entry is “inactive”.

Consider RERIYAELFSSWRRSAKGIF, for which the amyloid nucleation score entry is “inactive”.

With VDRYLCNFSGGTLYGSLSQD, the amyloid nucleation score result is “inactive”.

For the substance GKPWGTGSLVLWYLYDEDCA, the amyloid nucleation score result was “inactive”.

With VSLQLLWNPMLSYFTFQVGR, the amyloid nucleation score worked out at 1.16 ± 0.19.

With VCREGLRDSRSAGGFFSYII, the amyloid nucleation score result is “inactive”.

For YNMFNTLVDRVQLRGLCYGV, the amyloid nucleation score result was “inactive”.

As for RSQRKTFHWKFWRPSCSDQW, the amyloid nucleation score turned out to be 0.868 ± 0.12.

IERGSDFLLHAMAYSFIGCL: the amyloid nucleation score was -0.416 ± 1.1.

Take ISSFGARNTPWRTLSPAPEG: the amyloid nucleation score stood at 0.184 ± 0.32.

With KAFCFF, the amyloid nucleation score is 1.24 ± 0.12.

As to YSSHVPSLHQLDQVSRRVQG, the amyloid nucleation score result is “inactive”.

As for MDRRNGNRN, the amyloid nucleation score result is “inactive”.

In the case of NGFMDNCAVSCRTIIVVSYR, the amyloid nucleation score was determined as 2.59 ± 0.074.

For AYLIRIGVIRLFLTLCCG, the amyloid nucleation score result is “inactive”.

With CYQPRYLSWLKVRDCEDGVY, the amyloid nucleation score entry is “inactive”.

Consider SSNTTMRINSVRH, for which the amyloid nucleation score result was “inactive”.

In the case of FTSVMKNNV, the amyloid nucleation score result is “inactive”.

On to YSNWKLRRRCYLRDNIFWVI, for which the amyloid nucleation score entry is “inactive”.

As to VRGNYRNSFACRVLNHDQFW, the amyloid nucleation score result was “inactive”.

For LYVTILNVLLLHMTHSLFSG, the amyloid nucleation score entry was “inactive”.

Take DWTRFPSAFTGVQKSLVD: the amyloid nucleation score result is “inactive”.

With EHPLMSSSVSSTNMFNYAQI, the amyloid nucleation score result is “inactive”.

SAVYMVSGIGNNSHTSAFIR showed an amyloid nucleation score of 0.614 ± 0.17.

As for YTVMFLGANYSYVVKSMSRS, the amyloid nucleation score entry is “inactive”.

Consider DFYICPCCLSLKKRTMMSCG, for which the amyloid nucleation score result was “inactive”.

With YPKACVI, the amyloid nucleation score entry is “inactive”.

As for ANRLC, the amyloid nucleation score result is “inactive”.

ICVCEQSTVVYTKELSTFGA registered an amyloid nucleation score of 0.012 ± 0.27.

GIYCMSVSWFNVDLDTTGNT: the amyloid nucleation score entry was “inactive”.

In the case of NVYNMYS, the amyloid nucleation score was found to be 0.945 ± 0.22.

TVGVTYIKVWNVPNILYRGC: the amyloid nucleation score was found to be 0.769 ± 0.15.

Turning to QGNCLFVKVG, the amyloid nucleation score result was “inactive”.

Turning to DPLLLNRFGNCMLTLWVIVR, the amyloid nucleation score entry was “inactive”.

Consider RKILVVFLSWFNFKVYSNSM, for which the amyloid nucleation score result is “inactive”.

In the case of IIIFWLFLSGEIDECNNCAV, the amyloid nucleation score entry was “inactive”.

KPQVPSN: the amyloid nucleation score entry is “inactive”.

Substance LHVLPEQARTPRVTVPVFSP showed an amyloid nucleation score of -0.339 ± 1.1.

In the case of LSIVQD, the amyloid nucleation score was -0.413 ± 1.1.

Take YSIMFRVLVGT: the amyloid nucleation score entry was “inactive”.

In the case of WCFHVKTSSLVLSRQWEPLS, the amyloid nucleation score entry is “inactive”.

Take KLSSKY: the amyloid nucleation score result is “inactive”.

Take LIVGKNNVPMFTSNKFLVFS: the amyloid nucleation score is -0.508 ± 0.8.

As for CKRHLNYSVSRAKAEKINYL, the amyloid nucleation score entry is “inactive”.

Turning to SSVENFLNVCNHLDES, the amyloid nucleation score is 0.389 ± 0.25.

Turning to WRVSNKIIPIIRWQWMDPCL, the amyloid nucleation score entry is “inactive”.

As to AYMKGVWFRDEKDISFLIWI, the amyloid nucleation score result is “inactive”.

Take NGSVSVKSLIFLDDCCSSWA: the amyloid nucleation score entry is “inactive”.

As for CVFLKKPEKMQLLASSFNS, the amyloid nucleation score entry is “inactive”.

For HFMFGYGCTRSGQTRSPGFN, the amyloid nucleation score worked out at 1.88 ± 0.11.

Take HVNLIDTKNSLMQMLN: the amyloid nucleation score entry is “inactive”.

Turning to QWMQRTW, the amyloid nucleation score result was “inactive”.

On to IEKASACNG, for which the amyloid nucleation score entry was “inactive”.

RLNTMCYSSALASS: the amyloid nucleation score result was “inactive”.

Consider YGLSGDKFRWM, for which the amyloid nucleation score entry was “inactive”.

As for RVRFLCIMFWDH, the amyloid nucleation score was -0.038 ± 0.66.

With SSYLLRLLIFTSSIRRMFGS, the amyloid nucleation score entry was “inactive”.

With CWPSVMFKISADNSGWFGVD, the amyloid nucleation score result is “inactive”.

In the case of SRKVYEPKVPLAVSGCRMNV, the amyloid nucleation score result is “inactive”.

As to QWWITTYFGLIFLYVFYSID, the amyloid nucleation score result is “inactive”.

As to VCVVWNIVDQAYNMW, the amyloid nucleation score amounted to 0.253 ± 0.34.

As for VCLCNIRDMAG, the amyloid nucleation score entry is “inactive”.

Regarding CNHLSSTCFT, the amyloid nucleation score entry is “inactive”.

For RMCKTATVIHYGLFINLTEF, the amyloid nucleation score entry was “inactive”.

With VLRSNKYRITMGMGKKFPAL, the amyloid nucleation score entry is “inactive”.

On to SPMRLLGSSFGQ, for which the amyloid nucleation score result was “inactive”.

For the substance CHLPQRP, the amyloid nucleation score stood at 0.989 ± 0.2.

As to VYWFRYRSIGTAAS, the amyloid nucleation score entry was “inactive”.

In the case of TISIVTWDIVRSKCMRRKVL, the amyloid nucleation score result was “inactive”.

With KITLDYRLGHVDRQTTISVK, the amyloid nucleation score entry is “inactive”.

In the case of LLLWSAIIYK, the amyloid nucleation score entry was “inactive”.

For the substance KRLSCNFRSRSKSSGWPTLV, the amyloid nucleation score result is “inactive”.

With FLSSCKLMGFMS, the amyloid nucleation score result is “inactive”.

On to QWKPWDNTAVGMLPAWIWVD, for which the amyloid nucleation score entry was “inactive”.

The substance YGFAVRLCCPSLNVFLTELL came in with an amyloid nucleation score of 0.612 ± 0.15.

On to MKLHTPIEMLEGTHIGHVCG, for which the amyloid nucleation score result was “inactive”.

As for SSLMRIHLPLVYQ, the amyloid nucleation score entry is “inactive”.

Turning to GFIEW, the amyloid nucleation score entry is “inactive”.

Substance NITFISSWIMQEYTFVLCSF yielded an amyloid nucleation score of 1.96 ± 0.065.

Take EVMLYRQHHDVRHEHSGYLT: the amyloid nucleation score result is “inactive”.

Turning to DIFVFILMLRTTDSWVLLS, the amyloid nucleation score result is “inactive”.

For CFGISLTESMSTSQNVVLDH, the amyloid nucleation score result is “inactive”.

Substance PVQRTLVRAVSESFR gave an amyloid nucleation score of 0.899 ± 0.13.

On to YYWLLIGLLFRVLLMLVQGK, for which the amyloid nucleation score result is “inactive”.

As to DVCTLSELSVFPSLSISQ, the amyloid nucleation score result was “inactive”.
